This sample holds only a part of the variants without activity.
B1: TPR 5TU (parent)
chain: GGAUCUUCUCGAUCUAACAAAAAAGACAAAUCUGCCACAAAGCUUGAGAGCAUCUUCGGAUGCAGAGGCGGCAGCCUUCGGUGGCGCGAUAGCGCCAACGUUCUCAACUAUGACACGCAAAACGCGUGCUCCGUUGAAUGGAGUUUAUCAUG

Variants of: B1
Assay: polymerase ribozyme fitness, log enrichment relative to wild type (log ratio); higher = more active; in vitro selection for triplet polymerase activity
How it was run: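 Mutant libraries of each subunit of a heterodimeric triplet polymerase ribozyme were built by PCR and transcribed. Each library went through one round of in vitro selection in triplicate: annealing with biotinylated primer, partner subunit and triplets, frozen incubation at −7 °C, gel excision of extended constructs, streptavidin-bead capture and RT-PCR. Input and output libraries were Illumina-sequenced; only genotypes with ≥10 input reads and ≥1 read per output were kept. Fitness is log2(genotype enrichment/wild-type enrichment), using inverse-variance-weighted replicate averages.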

Row | Variant | polymerase ribozyme fitness (log ratio)
1 | C32G C57U C95U A142C U144G | ≤ -4.2
2 | C32A C96U | -4.11
3 | U31G A60G G152U | -3.16
4 | U33C A52G G70A G92A A150G | -3.87
5 | U33A A37G C105U A106G | -4.07
6 | U33C C57U G80U G83U C87U G128U | ≤ -4.2
7 | U33C A49G U77G U130A G133U U135A | ≤ -4.2
8 | U33G U55A G70A G80C | ≤ -4.2
9 | U33C G42A G81A A89G A119C C132U | ≤ -4.2
10 | U33C C36A U55A G83A A89G A142U U148C | ≤ -4.2
11 | C32U C96G A142U | -3.35
12 | C32U G80U U102G A113U C125U G126A | ≤ -4.2
13 | U31G G58A C85A C114G A115U | -4.05
14 | C32G C54U A73C C79U C87G U145G | ≤ -4.2
15 | C32U C118U G133C | -2.99
16 | U33G G83C | -3.6
17 | U31G C116G U144C | -4.03
18 | C32G G42C A49U G94C C95A G126A | -3.97
19 | U33G C95G C116A | -4.15
20 | C32U A41U | -3.95
21 | C32G C51U G94U | ≤ -4.2
22 | C32G C93U A119U A147U | ≤ -4.2
23 | C32A U45G G46A C99G C103G U127C U148G | ≤ -4.2
24 | U31G C123U | 0.732

Row | Variant | polymerase ribozyme fitness (log ratio)
25 | U33A C57U C79G A89U A97G | ≤ -4.2
26 | C32G C38U G58A U82A C96A U104G A110C G133A U139A G152U | ≤ -4.2
27 | U33A C76G G84C C85G C87G A89G G136C U145A | ≤ -4.2
28 | U33G A37U A60C C75U G94U C108U | ≤ -4.2
29 | U31G C125U U130A | ≤ -4.2
30 | C32A G84U A97G C131U U139C | ≤ -4.2
31 | C32A G58C A64U C85G | ≤ -4.2
32 | C32G U61A G92U C131U | ≤ -4.2
33 | C32A G88C G141C | ≤ -4.2
34 | C32U G84A | -2.55
35 | U33A C96A | ≤ -4.2
36 | C32U G42U C79G C129A A138G U146C | ≤ -4.2
37 | C32U U53A G84U A120G G128U A142U | ≤ -4.2
38 | C32U C38U C69A U78A C99G U101A U127C | ≤ -4.2
39 | U31G C32U C75G A98G A121C G133A | ≤ -4.2
40 | C32U G59U G81A | -3.13
41 | U33C G81U C93G G143U | -4.06
42 | C32U U33A U151A | -4.18
43 | U31G C54A C95A A142U | -3.34
44 | U33A C85U U146G A147U A150G | ≤ -4.2
45 | U33G U55C C76U G86U C105A C116U | ≤ -4.2
46 | U31G C35U A60U A115G | -3.22
47 | C32A U61A C63G A66U U77G | ≤ -4.2
48 | C32G C76U G88C C96A C103U U127G C129A U139A A142U | ≤ -4.2

Row | Variant | polymerase ribozyme fitness (log ratio)
49 | C32U C36U G68A G83U | ≤ -4.2
50 | U33C C85A | -3.61
51 | C32A C51A C54A G92A A97U U146C | ≤ -4.2
52 | C32U U61C | -3.52
53 | C32U U61G | -3.73
54 | C32U A52G U77G A97C U144A | ≤ -4.2
55 | U33G U55G G68A C79A G84U G136U | ≤ -4.2
56 | C32G C35A | -3.92
57 | C32G C105U | ≤ -4.2
58 | C32A A49U G68U C79G C85U U127G | ≤ -4.2
59 | C32A A40C G84A | ≤ -4.2
60 | C32A A41C G94U C103A C118U | ≤ -4.2
61 | C32A C85U | -4.06
62 | C32U A52U U90C G128C | ≤ -4.2
63 | C32A G50U U55A C85A | ≤ -4.2
64 | U33G G86U | -3.95
65 | C32U | -1.22
66 | C32G | -3.19
67 | C32A | -2.96
68 | U31G C123G A142G | -1.12
69 | C32U U53A A91C G94A C105G A121U U151C | ≤ -4.2
70 | U33G C54A G86A C87G A119U A122U G143C A147C | ≤ -4.2
71 | C32G C51U U53A G94A U101A A122G | ≤ -4.2
72 | C32U U61A G74U C99G | ≤ -4.2

Row | Variant | polymerase ribozyme fitness (log ratio)
73 | U33G G50A C93G G128A | ≤ -4.2
74 | U31G U145A | 0.652
75 | U31G A89C C95G C99A | ≤ -4.2
76 | U31G G42C G50C C57A C79G G80C G136C | ≤ -4.2
77 | U33C G68A | -3.97
78 | C32G U56A G94A C108U G124C U145A | ≤ -4.2
79 | U31G G62C G88C A119G | ≤ -4.2
80 | C32G A37G C38U U56A A119C | ≤ -4.2
81 | U31G C54U U101C | -0.138
82 | C32G A49U G65U C93U C99G A110U A147U | ≤ -4.2
83 | U31G G42U G58U G59A G86U U104G C131G G136C | ≤ -4.2
84 | U33G C43U A60U G88A U109G U135G G143A | -4.09
85 | C32G C87U A107U A113C C116A | ≤ -4.2
86 | C32U G46A A60U G83C C96A G141A | ≤ -4.2
87 | U31G A40G G83C A142G | ≤ -4.2
88 | C32G A49U G74U U77G A89U | ≤ -4.2
89 | U31G U148C | -2.37
90 | C32A U45A A60G C75U G81A U90G C116A | ≤ -4.2
91 | U33G U56A U90A U101G C108G A119U U135C G136A | ≤ -4.2
92 | C32G C43U C54U A73G U77G | ≤ -4.2
93 | U33G G81C G83A C87G C105A A120C A121G G143A U148A | ≤ -4.2
94 | U33G G62U C69U C103A G126C | ≤ -4.2
95 | C32U C69A G84A C96G U111A | ≤ -4.2
96 | U31G C95A C123G | 0.831

Row | Variant | polymerase ribozyme fitness (log ratio)
97 | U33A A40C A41U C93G | -3.86
98 | C32U C43U G92A U146G | ≤ -4.2
99 | U33G G46C G71A U78G U90G A110C U127C G141C | ≤ -4.2
100 | C32G A49C A142U | ≤ -4.2
101 | C32G C36U A64U C96U A107C G117U U134C A150C | ≤ -4.2
102 | U33G A60G C85A A97U A142C | ≤ -4.2
103 | U33G A39C C54U | -3.84
104 | U33G C85G G117C | ≤ -4.2
105 | C32G A37G G83U C87G A89G G133C | ≤ -4.2
106 | U33A A49C C76U G80U C149G | ≤ -4.2
107 | C32G G59C C87G | ≤ -4.2
108 | U31G A40G U61A C87U G112U G141C | ≤ -4.2
109 | U31G G59A G92U | -0.919
110 | C32U U144A | -2.41
111 | C32G U55G C79U C96G | -4.01
112 | U33A U102C A107U C125A | ≤ -4.2
113 | C32G G83A C85G C108G G124A U135G | ≤ -4.2
114 | C32G C85U | -3.86
115 | C32G C85G | ≤ -4.2
116 | U33A A47C C99A | ≤ -4.2
117 | U31G C99U C116U A137G | -1.84
118 | U33A U56A U90A A122C U151G | ≤ -4.2
119 | C32A A39U C79A C85A C129G | ≤ -4.2
120 | U33A U44A G46U G59A C93G C103U U104A U135A C149G | ≤ -4.2

Row | Variant | polymerase ribozyme fitness (log ratio)
121 | U33C A40C G68U C95A U102C C132G | -3.48
122 | U33G G83A G88U G136C | ≤ -4.2
123 | U33C G143C | ≤ -4.2
124 | U33A G46U C75A G140C | ≤ -4.2
125 | C32U A41C G58U A60C C75G C96U C114A | ≤ -4.2
126 | U33G C95A | -3
127 | U31G G59U C69A U134G G136U | -3.84
128 | C32U C51A A52U C96G G136U | ≤ -4.2
129 | U33C A39C G88A C118G C123A | ≤ -4.2
130 | C32U A147C | -2.55
131 | U31G U56G C93G C96G G133C | ≤ -4.2
132 | C32A U44A A60C C79G G92U | ≤ -4.2
133 | U33G G59A G94U | -3.39
134 | C32A C35U C57G G62A U90C C103G C116U C149U | ≤ -4.2
135 | C32U C85A C99G G133C U139G | ≤ -4.2
136 | U31G U33A C75G A91G G140A G152A | -3.96
137 | U31G A52U A60G A98G | -4
138 | C32U A49C | -4.13
139 | C32U A49U | -4.14
140 | U33G A41U G46C C54G G62C G70U C96A A120G G124U | ≤ -4.2
141 | U33C A39U G62A G86A A107U | ≤ -4.2
142 | C32G U55A G58A G68A C85U G88C C93A A106G C116A U135A | ≤ -4.2
143 | C32G G59C G71C C85A G88A U151A | ≤ -4.2
144 | U33C A49C C57U U145A U151A | ≤ -4.2

Row | Variant | polymerase ribozyme fitness (log ratio)
145 | U33A C95U | -4.12
146 | U33A G74A | ≤ -4.2
147 | C32U C69G C72U G88C U135G | ≤ -4.2
148 | U33G U53A G58A | -3.78
149 | U33G A39U C116A U130G | -3.98
150 | C32U U61A G94C C105U A107U A110U | ≤ -4.2
151 | C32A U53G C85U C96G G136C | ≤ -4.2
152 | U33A A91C | ≤ -4.2
153 | U33A A91G | ≤ -4.2
154 | U33C C95U | -2.01
155 | U33C G59A A60U U145G | -4
156 | U31G G65A | -1.83
157 | U31G G65U | ≤ -4.2
158 | U33C C87G G152A | ≤ -4.2
159 | U33G A73G | -0.513
160 | C32A C75G G92A A150U | ≤ -4.2
161 | C32U C85U | -1.97
162 | U33A G80A | -3.68
163 | U33G U44A G46C A73G C76A C95U G133U | ≤ -4.2
164 | C32A A37U U56A G74A C76G G86A A115G G124A U151G | ≤ -4.2
165 | U33G G46A A49C U77C A98U C99U G152U | ≤ -4.2
166 | C32G U44A G65A C85G | ≤ -4.2
167 | U33G C72U C95A G126U A137G | ≤ -4.2
